Patent US20160347814A1

Target: Inducible counterpart receptor for VSTM5 on anti-CD3 activated human CD4+ T cells
Assay: FACS on anti-CD3 activated primary human CD4+ T cells, 100 ug/ml; background of the isotype control on the whole cells

Synagis (Palivizumab, anti-RSV humanized IgG1 mAb) (antibody)
gMFI: 0.335
